Results on one molecule are retold here after publication doi:10.1101/2023.02.03.527086.

The target of the assay is T1, interferon regulatory factor 3 (IRF3) (human (endogenous in AC16)), Q14653.
T1 chain: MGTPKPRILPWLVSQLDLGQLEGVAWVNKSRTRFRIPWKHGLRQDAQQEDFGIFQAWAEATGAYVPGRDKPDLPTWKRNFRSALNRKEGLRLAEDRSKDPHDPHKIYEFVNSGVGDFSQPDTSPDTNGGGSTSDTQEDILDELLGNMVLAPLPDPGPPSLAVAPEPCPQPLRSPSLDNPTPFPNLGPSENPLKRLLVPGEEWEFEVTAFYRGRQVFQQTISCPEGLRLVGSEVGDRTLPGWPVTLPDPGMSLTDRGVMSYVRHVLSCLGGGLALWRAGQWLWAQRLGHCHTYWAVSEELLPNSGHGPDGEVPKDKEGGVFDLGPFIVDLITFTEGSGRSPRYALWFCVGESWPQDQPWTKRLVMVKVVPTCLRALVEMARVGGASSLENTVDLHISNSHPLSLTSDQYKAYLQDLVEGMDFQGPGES
The assay can be described thus: native gel or EMSA. Conditions: remark: other sources report otherwise.

B1: interferon regulatory factor 3 (IRF3), Q14653 1-427 (natural protein)
chain: T1 chain
In turn, B1 gave a stoichiometry N of 2.
